From PMC13094992, “Genetic complementation reveals structure-function links in nodavirus RNA replication complex crowns” (PLOS Pathogens, 2026) come the findings set out here.

The data set deals with the molecule itself. Kind of data set: negative-stain electron microscopy (2D classification, 3D reconstruction).

Changes are numbered by the printed parent chain. Numbers in names are those of the source.

B1: FHV protein A H93A, C-terminal alfa tag (natural protein)
chain: MTLKVILGEHQITRTELLVGIATVSGCGAVVYCISKFWGYGAIAPYPQSGGNRVTRALQRAVIDKTKTPIETRFYPLDSLRTVTPKRVADNGAAVSGAVRDAARRLIDESITAVGGSKFEVNPNPNSSTGLRNHFHFAVGDLAQDFRNDTPADDAFIVGVDVDYYVTEPDVLLEHMRPVVLHTFNPKKVSGFDADSPFTIKNNLVEYKVSGGAAWVHPVWDWCEAGEFIASRVRTSWKEWFLQLPLRMIGLEKVGYHKIHHCRPWTDCPDRALVYTIPQYVIWRFNWIDTELHVRKLKRIEYQDETKPGWNRLEYVTDKNELLVSIGREGEHAQITIEKEKLDMLSGLSATQSVNARLIGMGHKDPQYTSMIVQYYTGKKVVSPISPTVYKPTMPRVHWPVTSDADVPEVSARQYTLPIVSDCMMMPMIKRWETMSESIERRVTFVANDKKPSDRIAKIAETFVKLMNGPFKDLDPLSIEETIERLNKPSQQLQLRAVFEMIGVKPRQLIESFNKNEPGMKSSRIISGFPDILFILKVSRYTLAYSDIVLHAEHNEHWYYPGRNPTEIADGVCEFVSDCDAEVIETDFSNLDGRVSSWMQRNIAQKAMVQAFRPEYRDEIISFMDTIINCPAKAKRFGFRYEPGVGVKSGSPTTTPHNTQYNGCVEFTALTFEHPDAEPEDLFRLIGPKCGDDGLSRAIIQKSINRAAKCFGLELKVERYNPEIGLCFLSRVFVDPLATTTTIQDPLRTLRKLHLTTRDPTIPLADAACDRVEGYLCTDALTPLISDYCKMVLRLYGPTASTEQVRNQRRSRNKEKPYWLTCDGSWPQHPQDAHLMKQVLIKRTAIDEDQVDALIGRFAAMKDVWEKITHDSEESAAACTFDEDGVAPNSVDESLPMLNDAKQTRANPGTSRPHSNGGGSSHGNELPRRTEQRAQGPRQPARLPKQGKTNGKSDGNITAGETQRGGIPRGKGPRGGKTNTRRTPPKAGAQPQPSNNRK
notes: also called RNA capping null mutant H93A; not shown: ALFA tag, C-terminal, kept
For B1, the binding result is “binds”.

B2: FHV protein A D692E, C-terminal alfa tag (natural protein)
chain: B1 chain with A93H, D692E
notes: also called RNA polymerase null mutant D692E; not shown: ALFA tag, C-terminal, kept
Regarding B2, the binding result is given as “binds”.
